Target: Recombinant Art v 3.0201, non-specific lipid transfer protein of Artemisia vulgaris (mugwort) pollen (Artemisia vulgaris (mugwort)) (UniProt C4MGG9)
Experiment: crystal structure + other: NMR spectroscopy; recombinant non-tagged Art v 3.0201; X-ray crystallography of the non-labelled protein, NMR of the 13C/15N-labelled protein

Recombinant Art v 3.0201, non-specific lipid transfer protein of Artemisia vulgaris (mugwort) pollen (from UniProt C4MGG9 1-114) (non-labelled protein)
stoichiometry N: 2

From PMC5998909
